Laboratory results as given in patent US20190248900A1 (Y BIOLOGICS, published 2019).
Changes are numbered by the printed parent chain.

T1: TNFSF8 (Homo sapiens (Human), UniProt P32971 63-234)
T1 sequence: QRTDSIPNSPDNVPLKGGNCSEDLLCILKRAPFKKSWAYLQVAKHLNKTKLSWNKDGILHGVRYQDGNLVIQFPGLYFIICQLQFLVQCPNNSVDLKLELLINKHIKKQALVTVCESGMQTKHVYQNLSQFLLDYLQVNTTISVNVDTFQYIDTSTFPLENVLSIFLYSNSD

T2: EV12A (Homo sapiens (Human), UniProt P22794 31-133)
T2 sequence: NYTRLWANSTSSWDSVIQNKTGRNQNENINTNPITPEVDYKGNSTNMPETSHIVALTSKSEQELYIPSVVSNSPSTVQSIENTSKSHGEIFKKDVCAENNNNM

T3: SLITRK5 (Homo sapiens (Human), UniProt O94991 41-664)
T3 sequence: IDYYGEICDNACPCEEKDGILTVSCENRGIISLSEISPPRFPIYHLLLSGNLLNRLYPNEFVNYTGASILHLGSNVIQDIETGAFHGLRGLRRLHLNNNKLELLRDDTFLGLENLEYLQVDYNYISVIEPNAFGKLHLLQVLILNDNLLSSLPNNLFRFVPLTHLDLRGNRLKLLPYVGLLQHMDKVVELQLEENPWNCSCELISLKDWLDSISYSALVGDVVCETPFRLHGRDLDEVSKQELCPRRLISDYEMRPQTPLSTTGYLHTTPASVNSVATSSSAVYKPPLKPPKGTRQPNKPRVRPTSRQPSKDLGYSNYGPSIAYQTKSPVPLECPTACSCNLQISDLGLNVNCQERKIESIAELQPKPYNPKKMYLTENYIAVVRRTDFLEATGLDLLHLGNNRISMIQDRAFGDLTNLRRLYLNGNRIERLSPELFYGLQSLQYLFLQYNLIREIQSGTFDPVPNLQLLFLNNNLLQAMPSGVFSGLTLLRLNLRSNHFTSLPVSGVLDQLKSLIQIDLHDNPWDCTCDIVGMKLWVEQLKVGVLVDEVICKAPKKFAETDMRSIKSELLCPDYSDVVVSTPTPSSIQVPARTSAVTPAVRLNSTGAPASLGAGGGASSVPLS

T4: EPYC (Homo sapiens (Human), UniProt Q99645 20-322)
T4 sequence: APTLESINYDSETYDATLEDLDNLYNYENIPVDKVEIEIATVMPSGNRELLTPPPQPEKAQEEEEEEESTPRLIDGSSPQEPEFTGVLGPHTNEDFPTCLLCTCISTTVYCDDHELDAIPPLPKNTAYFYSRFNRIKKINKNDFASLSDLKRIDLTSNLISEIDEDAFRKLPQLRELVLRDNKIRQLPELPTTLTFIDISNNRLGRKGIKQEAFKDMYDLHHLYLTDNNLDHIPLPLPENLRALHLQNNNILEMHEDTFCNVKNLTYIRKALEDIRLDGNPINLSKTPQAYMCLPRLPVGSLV

T5: OGN (Homo sapiens (Human), UniProt P20774 21-298)
T5 sequence: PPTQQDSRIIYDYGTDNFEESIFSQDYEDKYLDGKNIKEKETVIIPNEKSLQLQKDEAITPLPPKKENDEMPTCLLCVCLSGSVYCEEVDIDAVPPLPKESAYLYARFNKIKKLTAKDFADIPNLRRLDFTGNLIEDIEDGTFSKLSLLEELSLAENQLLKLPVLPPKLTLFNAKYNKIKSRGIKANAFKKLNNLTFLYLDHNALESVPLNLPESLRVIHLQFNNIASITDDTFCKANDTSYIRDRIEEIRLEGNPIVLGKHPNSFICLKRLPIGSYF

T6: WIF1 (Homo sapiens (Human), UniProt Q9Y5W5 29-379)
T6 sequence: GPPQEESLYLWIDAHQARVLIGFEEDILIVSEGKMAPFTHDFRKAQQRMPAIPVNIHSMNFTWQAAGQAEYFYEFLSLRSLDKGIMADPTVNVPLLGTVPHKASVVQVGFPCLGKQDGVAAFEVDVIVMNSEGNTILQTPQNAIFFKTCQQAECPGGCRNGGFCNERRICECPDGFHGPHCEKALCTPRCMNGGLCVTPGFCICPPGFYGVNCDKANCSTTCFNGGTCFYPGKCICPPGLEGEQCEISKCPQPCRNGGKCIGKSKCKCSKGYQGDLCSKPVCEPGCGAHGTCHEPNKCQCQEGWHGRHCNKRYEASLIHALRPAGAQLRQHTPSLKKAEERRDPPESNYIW

T7: SPARC (Homo sapiens (Human), UniProt P09486 18-303)
T7 sequence: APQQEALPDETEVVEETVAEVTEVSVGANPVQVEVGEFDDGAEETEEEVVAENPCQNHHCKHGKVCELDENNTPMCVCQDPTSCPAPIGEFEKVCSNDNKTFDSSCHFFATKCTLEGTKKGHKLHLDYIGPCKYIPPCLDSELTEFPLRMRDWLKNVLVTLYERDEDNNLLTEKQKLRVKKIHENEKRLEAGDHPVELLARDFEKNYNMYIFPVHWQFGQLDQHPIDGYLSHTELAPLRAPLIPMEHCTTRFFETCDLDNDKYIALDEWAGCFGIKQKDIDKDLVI

T8: FSTL1 (Homo sapiens (Human), UniProt Q12841 21-308)
T8 sequence: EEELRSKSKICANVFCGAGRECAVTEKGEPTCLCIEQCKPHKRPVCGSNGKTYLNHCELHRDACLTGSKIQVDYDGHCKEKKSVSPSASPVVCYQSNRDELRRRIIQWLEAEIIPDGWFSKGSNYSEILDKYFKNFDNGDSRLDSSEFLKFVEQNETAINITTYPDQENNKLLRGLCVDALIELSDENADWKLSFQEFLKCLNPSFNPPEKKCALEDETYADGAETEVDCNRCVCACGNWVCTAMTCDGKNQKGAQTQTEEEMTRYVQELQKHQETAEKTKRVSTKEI

B1: PD1-45D6 (antibody, V domains shown)
VH: QVQLVESGGGVVQPGRSLRLSCAASGFTFSSYAMHWVRQVPGKGLEWVAVISYDGNDKYYADSVKGRFTISRDNSKNTLYLQMNSLRAEDTAVYYCVPTTFEYWGQGSQVTVSS
VL: DIVMTQTPLSLPVTPGEAASISCRSSQSLLDSDDGKTYLDWYLQKPGQSPQLLIYTLSYRASGVPDRFSGSGSGTEFNLRISRVEAEDVGIYYCMQRVEFPFTFGQGTKLDIK
notes: scFv-phage in the screening ELISA; whole IgG in the other assays
B2: PD1-41C9 (antibody, V domains shown)
VH: QMQLVESGGGVVQPGRSLRLSCAASGFTFSSYAMHWVRQAPGKGLEWVAVISYDGSNKYYADSVKGRFTISRDNSKNTLYLQMNRLRSEDTAVYYCTTTTFDSWGQGTLITVSS
VL: DIVMTQTPLSLPVTPGEAASISCRSSQSLLDSEDGNTYLDWYLQKPGQSPQLLIYTLSHRASGVPDRFSGSGSGTDFTLKISRVAAEDVGLYYCLQRMGFPYTFGQGTKLDIK
notes: as for B1
B3: PD1-49A2 (antibody, V domains shown)
VH: B2 VH with M2V, S75P, R85S, S88A, Q106R, I110V
VL: B2 VL with T7S, A18P, L30F, E33D, A85E, L91I, L110V, D111E
notes: scFv-phage in the screening ELISA; whole IgG in the other assays; also called Parent 49A2

molecular target: TNFSF9 (Homo sapiens (Human), UniProt P41273 50-254); assay: ELISA
Sequence (P41273 50-254 limits assumed): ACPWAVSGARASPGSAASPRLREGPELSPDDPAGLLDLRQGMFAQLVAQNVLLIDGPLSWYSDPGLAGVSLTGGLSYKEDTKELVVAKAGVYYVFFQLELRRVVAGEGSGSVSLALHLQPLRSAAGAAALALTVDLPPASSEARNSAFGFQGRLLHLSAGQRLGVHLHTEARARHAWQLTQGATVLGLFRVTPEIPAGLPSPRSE

| Binder | binding result |
| --- | --- |
| B1 | no binding (tested: 1 ug/ml) |
| B2 | no binding (tested: 1 ug/ml) |
| B3 | no binding (tested: 1 ug/ml) |

molecular target: T1, TNFSF8; assay: ELISA

| Binder | binding result |
| --- | --- |
| B1 | no binding (tested: 1 ug/ml) |
| B2 | no binding (tested: 1 ug/ml) |
| B3 | no binding (tested: 1 ug/ml) |

molecular target: CDCP1 (Homo sapiens (Human), UniProt Q9H5V8 30-667); assay: ELISA
Sequence (Q9H5V8 30-667 limits assumed): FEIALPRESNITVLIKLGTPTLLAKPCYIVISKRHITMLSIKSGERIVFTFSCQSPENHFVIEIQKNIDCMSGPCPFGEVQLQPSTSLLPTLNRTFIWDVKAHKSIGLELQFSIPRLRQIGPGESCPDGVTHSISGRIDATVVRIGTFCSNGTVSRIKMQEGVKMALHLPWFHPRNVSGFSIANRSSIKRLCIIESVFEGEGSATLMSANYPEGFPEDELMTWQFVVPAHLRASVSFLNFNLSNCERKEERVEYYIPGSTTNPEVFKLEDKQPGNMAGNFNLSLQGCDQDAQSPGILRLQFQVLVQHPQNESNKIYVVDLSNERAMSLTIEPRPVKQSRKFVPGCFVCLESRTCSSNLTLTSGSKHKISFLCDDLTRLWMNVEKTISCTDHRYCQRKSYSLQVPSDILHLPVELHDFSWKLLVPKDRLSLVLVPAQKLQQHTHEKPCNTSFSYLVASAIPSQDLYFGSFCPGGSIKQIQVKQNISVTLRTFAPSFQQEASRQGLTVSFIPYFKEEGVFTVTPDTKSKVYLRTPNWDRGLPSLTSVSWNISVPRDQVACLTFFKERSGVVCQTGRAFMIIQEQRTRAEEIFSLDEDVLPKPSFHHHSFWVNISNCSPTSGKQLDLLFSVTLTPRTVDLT

| Binder | binding result |
| --- | --- |
| B1 | no binding (tested: 1 ug/ml) |
| B2 | no binding (tested: 1 ug/ml) |
| B3 | no binding (tested: 1 ug/ml) |

molecular target: T2, EV12A; assay: ELISA

| Binder | binding result |
| --- | --- |
| B1 | no binding (tested: 1 ug/ml) |
| B2 | no binding (tested: 1 ug/ml) |
| B3 | no binding (tested: 1 ug/ml) |

molecular target: T3, SLITRK5; assay: ELISA

| Binder | binding result |
| --- | --- |
| B1 | no binding (tested: 1 ug/ml) |
| B2 | no binding (tested: 1 ug/ml) |
| B3 | no binding (tested: 1 ug/ml) |

molecular target: T4, EPYC; assay: ELISA

| Binder | binding result |
| --- | --- |
| B1 | no binding (tested: 1 ug/ml) |
| B2 | no binding (tested: 1 ug/ml) |
| B3 | no binding (tested: 1 ug/ml) |

molecular target: T5, OGN; assay: ELISA

| Binder | binding result |
| --- | --- |
| B1 | no binding (tested: 1 ug/ml) |
| B2 | no binding (tested: 1 ug/ml) |
| B3 | no binding (tested: 1 ug/ml) |

molecular target: T6, WIF1; assay: ELISA

| Binder | binding result |
| --- | --- |
| B1 | no binding (tested: 1 ug/ml) |
| B2 | no binding (tested: 1 ug/ml) |
| B3 | no binding (tested: 1 ug/ml) |

molecular target: T7, SPARC; assay: ELISA

| Binder | binding result |
| --- | --- |
| B1 | no binding (tested: 1 ug/ml) |
| B2 | no binding (tested: 1 ug/ml) |
| B3 | no binding (tested: 1 ug/ml) |

molecular target: T8, FSTL1; assay: ELISA

| Binder | binding result |
| --- | --- |
| B1 | no binding (tested: 1 ug/ml) |
| B2 | no binding (tested: 1 ug/ml) |
| B3 | no binding (tested: 1 ug/ml) |
